The source of these data is patent US20060058231A1 (Xencor, published 2006).

The term EC50 (read off the curve) denotes the concentration at which the effect is half-maximal. The term EC50 denotes the concentration giving half of the maximal effect. Read a high EC50 as a less potent agent.

Assay [1] concerns the target T1, BMPRIa receptor/Fc fusion (R&D Systems) (UniProt P36894 24-152).
T1 construct: also called ALK-3; not shown: Fc portion of the fusion
As to the kind of experiment: plate direct binding assay (ELISA-like): BMP-7 captured by anti-BMP-7 antibody, receptor-Fc titrated (x axis Receptor, ug/mL), anti-human IgG-HRP, absorbance 450 nm. Background: An ELISA detects its analyte on a solid surface through an enzyme-linked reagent.

The target in assay [2] is T2, BMPRIb receptor/Fc fusion (R&D Systems) (UniProt O00238 14-126).
T2 construct: also called ALK-6; not shown: Fc portion of the fusion
T2 sequence (looked up): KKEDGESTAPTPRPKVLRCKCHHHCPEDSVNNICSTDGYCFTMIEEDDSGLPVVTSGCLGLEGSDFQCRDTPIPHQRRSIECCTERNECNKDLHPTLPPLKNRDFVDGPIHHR
The assay is described as above.

Assay [3] has as its target T3, ActRIIa receptor/Fc fusion (R&D Systems) (UniProt P27037 20-134, limits assumed).
T3 construct: not shown: Fc portion of the fusion
The description is as above.

For assay [4], the target named is T4, BMPRII receptor/Fc fusion (R&D Systems) (UniProt Q13873 27-151, limits assumed).
T4 construct: not shown: Fc portion of the fusion
T4 sequence (looked up): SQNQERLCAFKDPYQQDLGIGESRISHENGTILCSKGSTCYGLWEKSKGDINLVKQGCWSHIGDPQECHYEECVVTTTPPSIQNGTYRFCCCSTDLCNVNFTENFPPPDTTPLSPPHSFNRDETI
The description is as above.

Assay [5] concerns the target T4, BMPRII receptor/Fc fusion (R&D Systems). As to the kind of experiment: plate direct binding assay, receptor-Fc detection, 12-point dilution of conditioned media. The protocol:
(§1) The affinity of human and variant BMP-7 for several BMP receptors (ActRIa, BMPRIb, ActRIIa, and BMPRII) was measured using an ELISA-like assay, described below. 96-well plates were coated with a capture antibody (R&D Systems BMP-7 ELISA Duoset DY354, part #840971) by diluting the antibody to 2 μg/mL in PBS, applying 50 μL/well, and incubating overnight or over the weekend at 4° C., in a humidified chamber. Excess liquid was removed from each plate. The plates were blocked by adding 175 μL blocking solution (1% BSA and 5% sucrose in PBS) to each well and incubating 1-2 hours at room temperature in a humidified chamber. The plates were then washed using an automated plate washer. 50 μL of BMP-7 containing solution (for example, diluted conditioned media obtained from the BMP-7 expression protocol above, or purified recombinant human BMP-7 of a known concentration) was added to each well and incubated 1.5-2 hours at room temperature in a humidified chamber. The plates were then washed using an automated plate washer. 50 μL of 5 μg/mL BMP receptor-Fc fusion in PBS was added to each well and incubated 1.5 hours at room temperature in a humidified chamber. The plates were then washed using an automated plate washer. 50 μL of 1:10,000 diluted anti-human IgG-HRP conjugate in secondary antibody dilution buffer (1% BSA in PBS, filtered through a 0.2 […] filter) was added to each well and incubated 30 minutes at room temperature in a humidified chamber. The plates were then washed using an automated plate washer. 50 μL of pre-mixed TMB substrate (BD Pharmingen #555214) was added to each well and incubated for 10-20 minutes at room temperature in the dark. 25 μL of 2N H₂SO₄ was added to each well. Absorbance readings at 450 nm were taken using a 540 nm wavelength correction.
(§2) To further characterize receptor binding, dose-response binding assays, using 12-point serial dilutions from conditioned media, were conducted for selected Library 1 variants.

For assay [6], the target named is T5, BMPRIb Fc fusion (R&D Systems) (UniProt O00238 14-126).
T5 construct: Bought receptor/Fc fusion; also called ALK-6; not shown: Fc part of the bought fusion
T5 sequence (looked up): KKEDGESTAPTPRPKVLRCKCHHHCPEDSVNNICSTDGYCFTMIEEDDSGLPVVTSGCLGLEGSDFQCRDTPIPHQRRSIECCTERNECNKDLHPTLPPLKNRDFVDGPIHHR
As to the kind of experiment: AlphaScreen competition against biotinylated Y65N/S120D BMP-7. As to the method: (§3) The Y65N/S120D variant of BMP-7 was also biotinylated for use in AlphaScreen assays using NHS-biotin. Bioactivity of the biotinylated protein was confirmed. AlphaScreen assays were performed to determine the binding affinity of selected BMP-7 variants for Fc fusions of the receptors BMPRIa, BMPRIb, ActRIIa, and BMPRII and the inhibitor noggin (R&D Systems). AlphaScreen assays were also performed to determine the affinity of selected variants for an anti-BMP-7 monoclonal antibody (R&D Systems mAb 3541). In all cases, 12-point binding curves were obtained in triplicate. Each data point corresponds to the luminescence produced from a solution comprising 10 uL of serially diluted BMP-7 variant, 10 uL receptor, inhibitor, or antibody, 10 uL biotinylated BMP-7, 10 uL AlphaScreen™ acceptor beads, and 10 uL AlphaScreen™ donor beads. Prism was used to calculate EC50 values for selected experiments.
For orientation: Bead proximity is the source of the signal in Alpha formats.

The target of assay [7] is T6, ActRIIa Fc fusion (R&D Systems) (UniProt P27037 20-134, limits assumed).
T6 construct: Bought receptor/Fc fusion; not shown: Fc part of the bought fusion
Described as above. As to the method:
as §3

Assay [8] deals with T7, BMPRII Fc fusion (R&D Systems) (UniProt Q13873 27-151, limits assumed).
T7 construct: Bought receptor/Fc fusion; not shown: Fc part of the bought fusion
T7 sequence (looked up): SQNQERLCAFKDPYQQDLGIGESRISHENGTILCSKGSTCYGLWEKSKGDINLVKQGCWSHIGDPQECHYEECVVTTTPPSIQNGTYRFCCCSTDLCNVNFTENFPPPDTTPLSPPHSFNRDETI
The assay is described as above. The protocol:
as §3

Assay [9] addresses T8, noggin Fc fusion (R&D Systems) (UniProt Q13253 28-232, limits assumed).
T8 construct: Bought noggin/Fc fusion; not shown: Fc part of the bought fusion
T8 sequence (looked up): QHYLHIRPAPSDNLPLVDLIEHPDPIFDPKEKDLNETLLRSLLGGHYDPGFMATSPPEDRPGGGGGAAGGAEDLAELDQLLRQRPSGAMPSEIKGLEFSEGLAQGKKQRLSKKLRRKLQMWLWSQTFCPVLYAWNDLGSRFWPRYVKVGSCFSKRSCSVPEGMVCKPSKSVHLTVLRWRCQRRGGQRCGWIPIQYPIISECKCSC
The assay is described as above. As to the method: as §3

The target in assay [10] is T5, BMPRIb Fc fusion (R&D Systems). The assay can be described thus: AlphaScreen competition; EC50 relative to wild type BMP-7 (R&D Systems). As to the method:
as §3

The target in assay [11] is T6, ActRIIa Fc fusion (R&D Systems). The description is as above. The protocol:
as §3

The target of assay [12] is T7, BMPRII Fc fusion (R&D Systems). The description is as above. As to the method: as §3
The target of assay [13] is T8, noggin Fc fusion (R&D Systems). The assay is described as above. As to the method:
as §3

In assay [14] the target is T3, ActRIIa receptor/Fc fusion (R&D Systems). As to the kind of experiment: plate direct binding assay, receptor-Fc detection, 12-point dilution of conditioned media. The protocol: as §1, §2

T3 sequence (P27037 20-134 limits assumed): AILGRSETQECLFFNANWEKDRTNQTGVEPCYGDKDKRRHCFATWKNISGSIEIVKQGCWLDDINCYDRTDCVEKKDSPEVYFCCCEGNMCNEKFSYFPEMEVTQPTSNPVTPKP
T6 sequence (P27037 20-134 limits assumed): as above
T1 sequence (P36894 24-152 limits assumed): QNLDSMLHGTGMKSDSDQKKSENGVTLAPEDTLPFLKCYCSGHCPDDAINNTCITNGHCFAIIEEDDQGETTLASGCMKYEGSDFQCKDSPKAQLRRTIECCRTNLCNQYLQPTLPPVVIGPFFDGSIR

B1: wild type human BMP-7 (Image clone) (ligand)
chain: STGGKQRSQNRSKTPKNQEALRMASVAENSSSDQRQACKKHELYVSFRDLGWQDWIIAPEGYAAYYCEGECAFPLNSYMNATNHAIVQTLVHFINPETVPKPCCAPTQLNAISVLYFDDSSNVILKKYRNMVVRACGCH
notes: The pro-protein is processed to a dimeric mature BMP-7; also called WT; wild-type BMP-7
Regarding B1, the “EC50 (read off the curve)” value in assay [1] is about 1 µg/mL; in assay [2], about 0.7 µg/mL; in assay [3] it was about 0.2 µg/mL; in assay [4] it was about 1 µg/mL.

B2: BMP-7 variant I86D (ligand)
chain: STGGKQRSQNRSKTPKNQEALRMASVAENSSSDQRQACKKHELYVSFRDLGWQDWIIAPEGYAAYYCEGECAFPLNSYMNATNHADVQTLVHFINPETVPKPCCAPTQLNAISVLYFDDSSNVILKKYRNMVVRACGCH
On to B2, for which the “fold reduced affinity relative to wild type” value in assay [5] is about 10 fold.

B3: BMP-7 variant Q53H (ligand)
chain: STGGKQRSQNRSKTPKNQEALRMASVAENSSSDQRQACKKHELYVSFRDLGWHDWIIAPEGYAAYYCEGECAFPLNSYMNATNHAIVQTLVHFINPETVPKPCCAPTQLNAISVLYFDDSSNVILKKYRNMVVRACGCH
With B3, in assay [5], the “fold reduced affinity relative to wild type” value is about 10 fold.

B4: BMP-7 variant 504 (Y65N/S120D) (ligand)
chain: STGGKQRSQNRSKTPKNQEALRMASVAENSSSDQRQACKKHELYVSFRDLGWQDWIIAPEGYAANYCEGECAFPLNSYMNATNHAIVQTLVHFINPETVPKPCCAPTQLNAISVLYFDDDSNVILKKYRNMVVRACGCH
notes: Expressed from the full-length Image clone and processed to the mature dimer; Purified from conditioned media on SP-sepharose; also called v504
With B4, the EC50 in assay [6] amounted to 0.0185 µg/mL; in assay [7] it was 0.0475 µg/mL; in [8], 0.222 µg/mL; in assay [9] it was 3.4 µg/mL. In addition, the “Fold change vs. wt” value in assay [10] stood at 0.371 fold; in assay [11], 0.445 fold; in [12], 0.969 fold; in [13], 1.19 fold.

B5: BMP-7 variant 526 (K39S/S120D/R134E) (ligand)
chain: STGGKQRSQNRSKTPKNQEALRMASVAENSSSDQRQACSKHELYVSFRDLGWQDWIIAPEGYAAYYCEGECAFPLNSYMNATNHAIVQTLVHFINPETVPKPCCAPTQLNAISVLYFDDDSNVILKKYRNMVVEACGCH
notes: Expressed from the full-length Image clone and processed to the mature dimer; Purified from conditioned media on SP-sepharose; also called v526
On to B5, for which the EC50 amounted to 0.0363 µg/mL in assay [6], 0.0445 µg/mL in assay [7], 0.139 µg/mL in assay [8] and 16.7 µg/mL in assay [9]. Moreover, the “Fold change vs. wt” value in assay [10] came to 0.727 fold; in assay [11], 0.416 fold; in [12], 0.607 fold; in assay [13], 5.83 fold.

B6: BMP-7 variant Q53G (ligand)
chain: STGGKQRSQNRSKTPKNQEALRMASVAENSSSDQRQACKKHELYVSFRDLGWGDWIIAPEGYAAYYCEGECAFPLNSYMNATNHAIVQTLVHFINPETVPKPCCAPTQLNAISVLYFDDSSNVILKKYRNMVVRACGCH
In the case of B6, the “fold increased affinity relative to wild type” value in assay [14] is about 10 fold.

B7: BMP-7 variant 565 (Y65N/F93T/R129D) (ligand)
chain: STGGKQRSQNRSKTPKNQEALRMASVAENSSSDQRQACKKHELYVSFRDLGWQDWIIAPEGYAANYCEGECAFPLNSYMNATNHAIVQTLVHTINPETVPKPCCAPTQLNAISVLYFDDSSNVILKKYDNMVVRACGCH
notes: Expressed from the full-length Image clone and processed to the mature dimer; Purified from conditioned media on SP-sepharose; also called v565
As for B7, the EC50 in assay [6] was found to be 0.0224 µg/mL; in [7] it was 0.0424 µg/mL; in [8], 0.409 µg/mL; in [9] it was 0.392 µg/mL. In addition, the “Fold change vs. wt” value in [10] stood at 0.448 fold; in [11] it was 0.397 fold; in assay [12], 1.78 fold; in assay [13], 0.137 fold.

B8: BMP-7 variant M23N (ligand)
chain: STGGKQRSQNRSKTPKNQEALRNASVAENSSSDQRQACKKHELYVSFRDLGWQDWIIAPEGYAAYYCEGECAFPLNSYMNATNHAIVQTLVHFINPETVPKPCCAPTQLNAISVLYFDDSSNVILKKYRNMVVRACGCH
On to B8, for which the “fold increased affinity relative to wild type” value in assay [14] is about 10 fold.
